This note sets out measurements from the DeepSol protein solubility set.

A short description of this series: soluble on expression in E. coli; label from the status in PepcDB or PDB records.
For the sequence “MRKVKTDNSDLIEYVNTVKELKNHIPIEEYRNEYRKLRSDDIPLVKAQKFKSAHTEVRRLEKKRESLIEYFIDELNPISSSKANTSARSTGNLDLFNERVLYRKAISEKSDEEIVALVIKQRTEAAVEFQRSIEQSLEQLSRISSEFEPSNQKRRKMSL”, the “soluble on expression in E. coli” value is “soluble”.

As to “MAALIRNLGARAAVAALSAKHVVPAAGSTALRMASTTPVEPKKADKPTVRQPDAVARSHLSDFGRYVAECLPKYVQKVQLTAGDELEVLIAPEGVVPVLQFLKDHHQAQFTNLVDIAGVDVPCRKNRFEVVYNLLSLRYNSRIRVKTYTDELTPLDSACEVHKAANWYEREIWDMYGVFFANHPDLRRILTDYGFEGHPQRRDFPLSGYVELRYDDEKKRVVCEPLELAQEFRKFDLSAPWEQFPNFRNANPPAEVVPPQAPAKK”, the “soluble on expression in E. coli” value is recorded as “not soluble”.

For “MRVLVTGGAGFIGSSFVRYIVNTTDWEVLVYDKLTYAGRLENLHDVIDRIGFMRGDIADEEQFGRVLTEFEPDVVVNFAAETHVDRSINEPAPFMRTNIIGVFTILEAIRKRIDQIVLLHVSTDEVYGDLWNTGKEATESDPLNPSSPYSASKASGDLLIKAYGRTYGLKYRIVRPCNNYGPYQHVEKLIPRTIIRILHGKPPVIYGDGSQIRDWLYVEDTARAIHVVLEKGVDGEIYNVCGGMASTVKDIVVNILESMGKPRDYLVYGKSRPGEDRRYAMKCDKIRNLGWAPHVTLKEGLKITVKWYIENRWWWRPLLDKRYVLADHPW”, the “soluble on expression in E. coli” value is recorded as “soluble”.

On to “MSDASLKTYQKQWAYQKYWVMAHSQQHYNALRELFKGNQWSEEKVLTFHCLIEEAQAIPPTVKSLRTAYQHVWGYFKKVASQEEKDHFKDLDAQLETKSEEMLCFLQEMTAHYQPSYLLSCRLITKGP”, for which the “soluble on expression in E. coli” value is listed as “not soluble”.

Turning to “MGRMIDGDWRTEADMNEHSDDGAFERDTTSFRHWVGDDVPPAAGRYHLYVSYACPWAHRTLLVRALLGLEDAISVSVVDPVRYDQGWTFDPEKPGCTPDHVFGGTHLRDVYTEADPEYTGRVTVPVLYDTDADTIVNNESEEIMRMLDVAFDDHAARDVDLYPEGYRDEVDRLIEDIYDPINNGVYRAGFADSQRAYDNAVDDLFEALAHYDDVLAEQRYLAGDVLTEADVAMFTTLYRFDEVYHTHFKCNRKRISDYDNLWPYLRELCQLPGVADTLYMEHVKQHYYRSHGHLNPKRLVPTGPNPAFFAPHDRDQLEHHHHHH”, the “soluble on expression in E. coli” value was “not soluble”.

Turning to “MSLRPARKTVGVALSGGGANGIAQIGVLKALDEERIPVDYIAGTSMGAIIGGLYSCGYSPADLEKIAETLPWQSVLSIREENPRARIFLEQQRIRDRSTIAIRFDKLKLMIPKSLSSAQALTGTLDLLILNGVYHSWQDFNSLPVQFRAVSTDLISGKRITLTSGSLSEAMRASSTIPVLFEPIERDGYRLVDGGLVANLPVDELDVVNASYKIAVDTHGSMYSKSGDLDLPWKAADQAITILTGLQYPAQLEKADEGHHHHHH”, the “soluble on expression in E. coli” value is on record as “soluble”.

On to “MGCKISTEFCSDNPVGSISTSKVHPTDLSTPSYAIKPVEFYEEPLKDDQLFYKVALAKKEYREKEKDKKEQLSSNRRVSLQVEPNKLPIPLTRSSSLSSIMENRPPSGISNSSFIRSRNTASRRFTIDTSRAKSNQYVVSLCSKKIGIIEYPDGRSDKQPCDVYWHNVVLSDMNKIVTSPQSRVNKFPGMTELAKKISLTHSISSMQKLFPDEYAFYPNSWFLPAHLADFHAFYRKAQALGKTEMWFIVKPDEGAQGTGIYLINSPNQIRNVDQRQLVQEYVADPLLMNDKLKFDFRVYGVIKSINPLSIYVAREGMARFCTEKYEKPDSSNFKNLYAHLTNYSLNKANEAYVHSNTLQDQTRGSKRLLSTVFHQLESRGVKTKRLWHDIKLILVKTTLAMLPEIMLHYEHHFYDSTGPQCFQIMGFDVMIREDGTPILLEVNAAPSLTADHIVPHPGRTLLEGGQRVRSIVDEVIKIPLVRDTLLLVLGLMEEEYQNNSLKGETKSLDDMQTIKQRRKPHLSEIFPTRYGAHSGHLLFLDKAMYIYMQFVQLRSNVNITNAGLKQFVRKCNLIDIIPVVHVDAKVSEINYYFTGEKRTNGNGLPFHAFLMFLFFIAEKKFVLENDLLSKVQRLLSFCDMSLRRYGVRSARLRRAEVDSTIGNVEIYMLPSRMARNRSGTNGRKQNFTDDNNNPNSFAHLPKINERL”, for which the “soluble on expression in E. coli” value was “not soluble”.
